Measured values as given in article PMC3760765, “A Meiosis-Specific Form of the APC/C Promotes the Oocyte-to-Embryo Transition by Decreasing Levels of the Polo Kinase Inhibitor Matrimony” (PLoS Biology, 2013).
Each block holds one binder with its values, some of them ahead of it.

What was measured:
[1] = target: T1, GST-tagged Mtrm (Matrimony) (Drosophila melanogaster, UniProt Q23973 1-217); experiment: pull-down; purified GST-tagged protein on beads incubated with 5 µl in vitro translation reaction (reticulocyte lysate) in 500 µl IP buffer, 2 h at 4°C; 3 washes; Western blot with anti-Myc 9E10; settings: one partner purified
T1 construct: mtrm cDNA LD47919 cloned into pGEX6p-1; also called GST-Mtrm; source: expressed and purified from bacteria
T1 sequence (looked up): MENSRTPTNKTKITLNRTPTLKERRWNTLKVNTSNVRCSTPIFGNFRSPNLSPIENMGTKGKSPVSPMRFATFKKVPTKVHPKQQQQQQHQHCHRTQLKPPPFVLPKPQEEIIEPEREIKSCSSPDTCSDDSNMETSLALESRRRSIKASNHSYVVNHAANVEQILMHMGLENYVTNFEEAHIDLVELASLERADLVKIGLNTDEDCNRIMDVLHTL

GST-CycA (Cyclin A) = target: T2, GST-CycA (Cyclin A) (UniProt P14785 1-491); experiment: as above; settings: one partner purified
T2 construct: Cyclin A; construct not described in the methods
T2 sequence (looked up): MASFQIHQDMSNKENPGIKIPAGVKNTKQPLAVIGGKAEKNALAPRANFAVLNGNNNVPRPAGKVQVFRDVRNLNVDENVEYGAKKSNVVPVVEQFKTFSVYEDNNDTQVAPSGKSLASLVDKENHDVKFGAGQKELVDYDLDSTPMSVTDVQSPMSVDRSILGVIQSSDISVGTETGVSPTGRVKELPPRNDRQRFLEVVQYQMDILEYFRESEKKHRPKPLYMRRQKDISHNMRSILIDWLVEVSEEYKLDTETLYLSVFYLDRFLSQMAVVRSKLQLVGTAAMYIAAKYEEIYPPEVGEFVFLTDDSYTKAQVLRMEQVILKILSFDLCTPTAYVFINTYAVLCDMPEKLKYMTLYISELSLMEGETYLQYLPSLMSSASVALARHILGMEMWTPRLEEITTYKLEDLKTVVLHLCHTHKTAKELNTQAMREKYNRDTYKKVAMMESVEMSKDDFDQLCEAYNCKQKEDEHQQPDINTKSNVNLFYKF

fold binding to GST-Mtrm against 6×Myc-CortΔWD40 [1]: 5.8 fold
B1: 6×Myc-Cortex (full length), in vitro translated (natural protein, Drosophila melanogaster, UniProt Q960N3 1-483, looked up)
chain: MFVEMSVCDSPNKNSKLDKKSLTPFKKVRRKNWKQEAAYKSDTSKGQEVSYVGERFIPNRFERENIEFNLKYIGKRKERDILETGVTLTASYWRQSGFISNINRTFGIGERRLFQFSSQQGTRSRVVDNDSADSDWPCNPRARPYAIQNATHEMPGICSPVDYNMMDWSSGGMVAMSSGQDVMLWRNLDESTMVFSVESPTSLKYSPDGKHLAIGCMDRNYPVLDLWEVRSPTEFLVSYRKLFFKSMGYISCIEWSHDGKEVICGTQCGVIIVLAMPTLNTLMQLREHRHTVKKMKFAPTHKYFASSDTDGKIFIFDAVLKVRLLKLDGRSIVFDWHPWTGEDLAVAERSPASIFIFNIPRRQFVASYRRRDDRIVIKTLTYSKITGELLVNVIRRDDADLAVCEILVLASLNRVVDLMSHQDRGTLFLMWNPDGTKIATGGLDDTFSLWNFFPTYKREAILRKQEQKAKDKCSSLSLYKGIR
notes: 6×myc-cort cDNA cloned into pOT2; also called Myc-tagged Cort; source: in vitro translated (TnT T7 Coupled Reticulocyte Lysate System, rabbit reticulocyte lysate)

fold binding to GST-CycA against binding to GST-Mtrm (GST-CycA (Cyclin A)): 155 fold
B2: 6×Myc-Fzy/Cdc20, in vitro translated (natural protein, Drosophila melanogaster, UniProt Q24044 1-526, looked up)
chain: MSQFNFVSDLQNALIMDGETRGPAPRWKKKLEASLNGSVNTTRSVLSVSYNTSFSGVQAPTKTPGKSSEGKTKKSNTTPSKTPGGGDRFIPNRAATNFELAHFLVNKDSGDKSDEENDKATSSNSNESNVQASAHKGDRQKLISEVAQVGDSKGGRILCYQNKAPAAPETHNNPLKVVYSIKTPISTKSGSRYIPTTSERILDAPDFINDYYLNLMDWSADNIVAVALGSCVYLWNAQTGNIEQLTEFEEGDYAGSLSWIQEGQILAIGNSTGAVELWDCSKVKRLRVMDGHSARVGSLAWNSFLVSSGSRDGTIVHHDVRAREHKLSTLSGHTQEVCGLKWSTDFKYLASGGNDNLVNVWSAASGGVGTATDPLHKFNDHQAAVRALAWCPWQPSTLASGGGTADRCIKFWNVNNGTLMKSVDSKSQVCSLLFSRHYKELISAHGFANNQLTIWKYPTMVKQADLTGHTSRVLQMAMSPDGSTVISAGADETLRLWNCFAPDPLASKKAVSTSKGKQSVFRQSIR
notes: 6×myc-fzy/cdc20 cDNA cloned into pOT2; also called Myc-tagged Fzy/Cdc20; Fizzy; source: in vitro translated (TnT T7 Coupled Reticulocyte Lysate System, rabbit reticulocyte lysate)
